In publication PMC4256367:

Target: hTau40 (Tau, 2N4R) 1-441 (UniProt P10636)
Experiment: fluorescence lifetime (TCSPC) over time
[1] = reference: unlabelled P0-Tau (E. coli), sites S202,T205,T212,S214,T231,S235,S262,S356,S396,S404,Y310,S324,T153

| other: final average lifetime [1] | Substance | other results |
| --- | --- | --- |
| – | hTau40 (Tau, 2N4R) 1-441 (from UniProt P10636-8) P12-Tau incubated with alkaline phosphatase (P4-Tau) | other: final average lifetime (reference: P12-Tau untreated, sites S202,T205,T212,S214,T231,S235,S262,S356,S396,S404): weaker; reference 0.6 |
| – | hTau40 (Tau, 2N4R) 1-441 (from UniProt P10636-8) P20-Tau (Sf9 cells treated with okadaic acid) | other: final average lifetime (reference: P12-Tau (Sf9, no okadaic acid)): stronger; reference 0.6 |
| stronger; reference 3.8 | hTau40 (Tau, 2N4R) 1-441 (from UniProt P10636-8) unlabelled P12-Tau (Sf9) | – |
| stronger; reference 3.8 | hTau40 (Tau, 2N4R) 1-441 (from UniProt P10636-8) unlabelled P20-Tau (Sf9 + okadaic acid) | – |
